This is an account of results in US20050112723A1, “Mammalian cell lines specifically deficient in O-linked glycosylation” (priority 2003, published 2005).

Positions count from the first letter of the chain named. “Also recorded” adds a separate entry of the source. Where only a bound is given, the exact number is not on record here.

One series relates to ldlD cells. The note with it: Krieger et al. (1989); cited from earlier work.
For the next series, the system named is wild-type CHO cells. The note with it: Krieger et al. (1989); cited from earlier work.
The test system of series [1] is UDP-galNAc/UDP-glcNAc interconversion. Nature of the series: UDP-GalNAc activity of GALE alleles expressed in ldlD cells. The series is classed as biochemical. The note with it: enzyme expressed in ldlD cells, FIG. 6. As for the experimental part:
(§1) In Vitro Assay for UDP-GalNAc: The radioactive method for detecting conversion of UDP-GalNAc to UDP-GIcNAc was performed essentially as described above for UDP-Gal, with the following assay components per 25 μl of reaction: 8.75 μl of premix (0.04 μCi of UDP-[^14C]GalNAc (ICN), 1.89 mM cold UDP-GalNAc, 28.6 mM pyruvate, 286 mM glycine, pH 8.7, 5 μl of 20 mM NAD), and 11.25 μl of protein diluted in Johnston buffer. Appropriate amounts of protein were used in each reaction to stay within the predetermined linear range of the assay. Assays were performed as for UDP-Gal, with a TLC run-time of 10 h and quantified as described for UDP-Gal.
(§2) For analysis by HPLC, protein samples were diluted with glycine buffer (100 mM glycine, pH 8.7) to a final volume of 7.5 μl. For each reaction, 2.5 μl of 20 mM NAD+, and 2.5 il of premix (3.3 mM UDP-GalNAc, and 500 mM glycine, pH 8.7) were added, for a final reaction volume of 12.5 μl. Assay mixtures were incubated at 37° C. for 30 min before stopping by addition of 2.5 volumes of ice-cold 100% methanol. Samples were vortexed, spun and dried as for UDP-Gal HPLC assays, and resuspended in 750 μl ddH2O. The suspension was added to an 0.2 μm nylon micro-spin filter tube, and spun for approximately 2.5 min at 4000 g. An aliquot of 20 μl was then analyzed by HPLC.
In this experiment, ldlD cells expressing WThGALE were used as a positive control, and ldlD cells expressing backbone alone were used as a negative control.

Series [2] shares this test system. Description: In vitro assay for UDP-GalNAc, purified enzymes. The class given is biochemical. The note with it: purified enzyme expressed in Pichia pastoris, FIG. 1. As for the experimental part: as §1, §2
HPLC Analysis of Carbohydrates: Carbohydrate detection by HPLC was based on the methods of Smits (1998) and de Koning (1992). HPLC analysis was carried out on a DX600 HPLC system (Dionex, Sunnyvale, CA) consisting of a Dionex AS50 autosampler, a Dionex GP50 gradient pump, and a Dionex ED50 electrochemical detector. Carbohydrates were separated on a CarboPac PA10 column, 250×4 mm, with a CarboPac PA10 guard column, 50×4 mm, placed before the analysis column, and a borate trap placed after. […]
The ED50 detector consisted of a gold electrode and a pH-Ag/AgCl reference electrode for signal detection by integrated amperometry. […] Carbohydrates were quantified using PeakNet software version 6.4 (Dionex) and based on integration of peak areas with comparison to standards. […]

The test system of series [3] is UDP-gal/UDP-glc interconversion. Nature of the series: In vitro UDP-gal activity assays on protein extracts from transfected ldlD cells. The class given is biochemical. The note with it: protein extracts of stably transfected ldlD cells, CMV promoter, FIG. 3 and 5. As for the experimental part:
(§3) In Vitro Assays for UDP-Gal: Aliquots of each purified enzyme from Example lwere stored in 50% glycerol with 4 mM NAD+ in liquid nitrogen, while crude extracts were stored at −80° C. until needed. All crude extracts were passed through Micro biospin 30 columns (Biorad) before being assayed for enzyme activity. Assays to determine the level of GALE activity with respect to UDP-Gal were performed essentially as previously described in Thoden et al. J Biol Chem Jul 26; 277(30):27528-34 (2002). […] For radioactive assay, conversion of UDP-Gal to UDP-Glc was measured in a 12.5-μl reaction containing 2.5 μl of premix (0.05 μCi of UDP-[^14C]Gal (Amersham Biosciences), […] cold UDP-Gal, 0.2 mM glycine buffer, pH 8.7), 2.5 μl of 20 mM NAD+, and 7.5 μl of purified protein diluted in Johnston buffer (20 mM HEPES/KOH, pH 7.5, 1 mM dithiothreitol, and 0.3 mg of bovine serum albumin/ml). Appropriate amounts of protein were used in each reaction in order to stay within the predetermined linear range of the assay. Reactions were incubated at 37° C for 30 min and were stopped by boiling at 100° C. for 10 min. […] Images were visualized with a Typhoon 9200 variable mode imager and quantified using ImageQuant software (both from Amersham Biosciences). Percent conversion was determined by dividing the product signal by the total signal and multiplying by 100. […] A 15 μl aliquot was then analyzed by HPLC. […]

For series [4] the test system is unchanged. Nature of the series: In vitro assay for UDP-Gal, purified enzymes. The class given is biochemical. The note with it: purified enzyme expressed in Pichia pastoris, FIG. 1. Here is the method: as §3

Take `O=C[C@H](O)[C@@H](O)[C@@H](O)[C@H](O)CO` [galactose]: the “galactose concentration at which cells experience toxicity” value in the series with ldlD cells was “greater than 75 μM”. The “galactose levels with no apparent toxicity” value in the series with wild-type CHO cells is not above 10 mM.

B1: WTeGALE: wild-type E. coli GALE (UDP-galactose 4-epimerase) (protein)
chain: MRVLVTGGSGYIGSHTCVQLLQNGHDVIILDNLCNSKRSVLPVIERLGGKHPTFVEGDIRNEALMTEILHDHAIDTVIHFAGLKAVGESVQKPLEYYDNNVNGTLRLISAMRAANVKNFIFSSSATVYGDQPKIPYVESFPTGTPQSPYGKSKLMVEQILTDLQKAQPDWSIALLRYFNPVGAHPSGDMGEDPQGIPNNLMPYIAQVAVGRRDSLAIFGNDYPTEDGTGVRDYIHVMDLADGHVVAMEKLANKPGVHIYNLGAGVGNSVLDVVNAFSKACGKPVNYHFAPRREGDLPAYWADASKADRELNWRVTRTLDEMAQDTWHWQSRHPQGYPD
modifications: Eschesichia Coli
B1: the “activity with regard to UDP-galNAc/UDP-glcNAc interconversion” value in series [1] was “not significantly active”. The “ability to interconvert UDP-GalNAc and UDP-GlcNAc” value in series [2] was “no ability”. In addition, the “activity with regard to UDP-gal/UDP-glc interconversion” value in series [3] was “active”.

B2: WThGALE: wild type human GALE (UDP-galactose 4-epimerase) (protein, UniProt Q14376 1-348, looked up)
UDP-glucose 4-epimerase: MAEKVLVTGGAGYIGSHTVLELLEAGYLPVVIDNFHNAFRGGGSLPESLRRVQELTGRSVEFEEMDILDQGALQRLFKKYSFMAVIHFAGLKAVGESVQKPLDYYRVNLTGTIQLLEIMKAHGVKNLVFSSSATVYGNPQYLPLDEAHPTGGCTNPYGKSKFFIEEMIRDLCQADKTWNAVLLRYFNPTGAHASGCIGEDPQGIPNNLMPYVSQVAIGRREALNVFGNDYDTEDGTGVRDYIHVVDLAKGHIAALRKLKEQCGCRIYNLGTGTGYSVLQMVQAMEKASGKKIPYKVVARREGDVAACYANPSLAQEELGWTAALGLDRMCEDLWRWQKQNPSGFGTQA
For B2, the “activity with regard to UDP-galNAc/UDP-glcNAc interconversion” value in series [1] is “very active”. Moreover, the “ability to interconvert UDP-GalNAc and UDP-GlcNAc” value in series [2] is reported as “well”. Besides, the “UDP-Gal activity (UDP-Gal/UDP-Glc interconversion)” value in series [4] was “well”.

B3: C307YhGALE: wild type hGALE except a tyrosine residue has been substituted for cysteine at position 307 (protein)
chain: B2 UDP-glucose 4-epimerase with C307Y
modifications: Human polypeptide
Consider B3, for which the “activity with regard to UDP-galNAc/UDP-glcNAc interconversion” value in series [1] was “reduced to levels close to those seen in ldld cells expressing backbone alone; also recorded: reduced to levels close to those seen in IdiD cells expressing backbone alone”; in series [1] (listed as C307Y hGALE), “not significantly active”. Also, the “UDP-GalNAc activity, % of that seen in WT hGALE” value in series [2] stood at 2.30%. In series [4], the “UDP-Gal activity (UDP-Gal/UDP-Glc interconversion)” value is “maintains wildtype levels”. In addition, the “activity with regard to UDP-gal/UDP-glc interconversion” value in series [3] is “active”.
